Experimental data: article PMC3587840 (Nature, 2010)

Tests used:
[1] = biological target: T1, SEMA4D_(ecto)(K395D) (human, UniProt Q92854 22-677, K395D); assay: SPR
T1 sequence: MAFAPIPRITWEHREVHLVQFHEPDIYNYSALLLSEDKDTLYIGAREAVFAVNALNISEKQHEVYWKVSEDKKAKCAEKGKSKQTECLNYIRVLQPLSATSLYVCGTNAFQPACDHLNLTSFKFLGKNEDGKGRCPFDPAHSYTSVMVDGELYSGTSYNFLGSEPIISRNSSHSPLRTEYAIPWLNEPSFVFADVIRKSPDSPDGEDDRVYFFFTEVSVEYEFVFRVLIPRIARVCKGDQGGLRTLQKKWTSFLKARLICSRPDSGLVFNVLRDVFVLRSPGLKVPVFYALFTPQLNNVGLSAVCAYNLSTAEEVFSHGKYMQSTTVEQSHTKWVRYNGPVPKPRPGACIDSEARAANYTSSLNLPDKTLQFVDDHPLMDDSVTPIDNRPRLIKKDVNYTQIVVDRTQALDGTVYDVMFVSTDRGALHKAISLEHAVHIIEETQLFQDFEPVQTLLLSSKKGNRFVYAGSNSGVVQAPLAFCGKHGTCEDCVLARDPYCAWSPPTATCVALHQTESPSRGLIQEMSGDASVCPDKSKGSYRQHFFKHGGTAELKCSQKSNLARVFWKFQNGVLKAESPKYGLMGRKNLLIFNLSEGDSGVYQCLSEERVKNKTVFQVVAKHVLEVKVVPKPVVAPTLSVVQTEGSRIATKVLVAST

[2] = biological target: T2, human SEMA4D_(ecto), C-terminal His-tag (human, UniProt Q92854 22-677); assay: crystal structure
T2 sequence: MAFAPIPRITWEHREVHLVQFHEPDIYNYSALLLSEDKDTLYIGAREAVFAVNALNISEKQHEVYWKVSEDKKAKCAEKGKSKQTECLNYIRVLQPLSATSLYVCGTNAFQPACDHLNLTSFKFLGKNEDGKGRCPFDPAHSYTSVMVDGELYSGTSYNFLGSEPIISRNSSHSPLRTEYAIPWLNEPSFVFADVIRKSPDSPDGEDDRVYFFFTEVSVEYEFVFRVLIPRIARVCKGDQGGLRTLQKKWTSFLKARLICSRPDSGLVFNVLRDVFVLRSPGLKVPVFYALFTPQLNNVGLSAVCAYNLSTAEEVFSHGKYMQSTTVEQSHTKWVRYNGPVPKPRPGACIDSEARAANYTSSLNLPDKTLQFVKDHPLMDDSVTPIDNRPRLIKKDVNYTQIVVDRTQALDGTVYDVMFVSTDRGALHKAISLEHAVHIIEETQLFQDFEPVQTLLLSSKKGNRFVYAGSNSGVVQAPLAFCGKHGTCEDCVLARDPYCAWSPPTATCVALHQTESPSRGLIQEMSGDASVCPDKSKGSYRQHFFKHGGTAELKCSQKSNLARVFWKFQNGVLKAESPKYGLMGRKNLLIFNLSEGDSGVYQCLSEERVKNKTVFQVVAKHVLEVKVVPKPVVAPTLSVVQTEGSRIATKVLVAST

[3] = biological target: T3, mouse PlxnA2_(1–4), C-terminal His-tag (mouse, UniProt P70207 35-703); assay: SPR
T3 sequence: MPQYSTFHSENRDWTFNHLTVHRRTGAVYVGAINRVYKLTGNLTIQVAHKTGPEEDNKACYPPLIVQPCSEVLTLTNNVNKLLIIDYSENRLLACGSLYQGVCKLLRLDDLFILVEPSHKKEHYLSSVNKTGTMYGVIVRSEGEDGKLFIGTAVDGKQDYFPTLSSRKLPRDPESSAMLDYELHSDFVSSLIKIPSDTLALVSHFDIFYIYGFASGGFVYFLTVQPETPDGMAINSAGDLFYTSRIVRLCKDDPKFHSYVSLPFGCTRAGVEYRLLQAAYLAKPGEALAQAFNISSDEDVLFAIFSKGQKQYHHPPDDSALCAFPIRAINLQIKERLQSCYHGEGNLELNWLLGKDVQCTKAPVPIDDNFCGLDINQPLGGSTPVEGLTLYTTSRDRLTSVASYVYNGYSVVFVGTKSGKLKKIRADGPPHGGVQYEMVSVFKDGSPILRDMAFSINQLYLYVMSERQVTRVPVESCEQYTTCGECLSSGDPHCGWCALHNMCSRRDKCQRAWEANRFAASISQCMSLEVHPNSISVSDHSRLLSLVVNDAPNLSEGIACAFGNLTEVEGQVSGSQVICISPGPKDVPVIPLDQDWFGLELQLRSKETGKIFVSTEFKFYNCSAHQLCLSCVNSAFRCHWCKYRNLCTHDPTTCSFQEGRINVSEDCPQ

[4] = biological target: PlxnA2_(1–4)(D193K) (mouse, UniProt P70207 35-703, D193K); assay: SPR

B1: PLXNB1_(1–2)(D139K) (domain or fragment)
chain: LQPLPPTAFTPNGTYLQHLARDPTSGTLYLGATNFLFQLSPGLQLEATVSTGPVLDSRDCLPPVMPDECPQAQPTNNPNQLLLVSPGALVVCGSVHQGVCEQRRLGQLEQLLLRPERPGKTQYVAANDPAVSTVGLVAQGLAGEPLLFVGRGYTSRGVGGGIPPITTRALWPPDPQAAFSYEETAKLAVGRLSEYSHHFVSAFARGASAYFLFLRRDLQAQSRAFRAYVSRVCLRDQHYYSYVELPLACEGGRYGLIQAAAVATSREVAHGEVLFAAFSSAAPPTVGRPPSAAAGASGASALCAFPLDEVDRLANRTRDACYTREGRAEDGTEVAYIEYDVNSDCAQLPVDTLDAYPCGSDHTPSPMASRVPLEATPILEWPGIQLTAVAVTMEDGHTIAFLGDSQGQLHRVYLGPGSDGHPYSTQSIQQGSAVSRDLTFDGTFEHLYVMTQSTLLKVPVASCAQHLDCASCLAHRDPYCGWCVLLGRCSRRSECSRGQGPEQWLWSFQPELGCLQ
[1]
  binding result: binds

B2: human PLXNB1_(1–2), C-terminal His-tag (domain or fragment)
chain: LQPLPPTAFTPNGTYLQHLARDPTSGTLYLGATNFLFQLSPGLQLEATVSTGPVLDSRDCLPPVMPDECPQAQPTNNPNQLLLVSPGALVVCGSVHQGVCEQRRLGQLEQLLLRPERPGDTQYVAANDPAVSTVGLVAQGLAGEPLLFVGRGYTSRGVGGGIPPITTRALWPPDPQAAFSYEETAKLAVGRLSEYSHHFVSAFARGASAYFLFLRRDLQAQSRAFRAYVSRVCLRDQHYYSYVELPLACEGGRYGLIQAAAVATSREVAHGEVLFAAFSSAAPPTVGRPPSAAAGASGASALCAFPLDEVDRLANRTRDACYTREGRAEDGTEVAYIEYDVNSDCAQLPVDTLDAYPCGSDHTPSPMASRVPLEATPILEWPGIQLTAVAVTMEDGHTIAFLGDSQGQLHRVYLGPGSDGHPYSTQSIQQGSAVSRDLTFDGTFEHLYVMTQSTLLKVPVASCAQHLDCASCLAHRDPYCGWCVLLGRCSRRSECSRGQGPEQWLWSFQPELGCLQ
[2]
  binding result: binds

B3: mouse Sema6A_(ecto), biotinylated at an engineered C-terminal tag (domain or fragment)
chain: GFPEDSEPISISHGNYTKQYPVFVGHKPGRNTTQRHRLDIQMIMIMNRTLYVAARDHIYTVDIDTSHTEEIYCSKKLTWKSRQADVDTCRMKGKHKDECHNFIKVLLKKNDDTLFVCGTNAFNPSCRNYRVDTLETFGDEFSGMARCPYDAKHANIALFADGKLYSATVTDFLAIDAVIYRSLGDSPTLRTVKHDSKWLKEPYFVQAVDYGDYIYFFFREIAVEYNTMGKVVFPRVAQVCKNDMGGSQRVLEKQWTSFLKARLNCSVPGDSHFYFNILQAVTDVIRINGRDVVLATFSTPYNSIPGSAVCAYDMLDIANVFTGRFKEQKSPDSTWTPVPDERVPKPRPGCCAGSSSLEKYATSNEFPDDTLNFIKTHPLMDEAVPSIINRPWFLRTMVRYRLTKIAVDNAAGPYQNHTVVFLGSEKGIILKFLARIGSSGFLNGSLFLEEMNVYNPEKCSYDGVEDKRIMGMQLDRASGSLYVAFSTCVIKVPLGRCERHGKCKKTCIASRDPYCGWVRESGSCAHLSPLSRLTFEQDIERGNTDGLGDCHNS
modifications: biotin on the engineered C-terminal tag (enzymatic)
[3]
  Kd: 2300 nM

B4: Sema6A_(ecto)(I322E), coupled to the chip (domain or fragment, mouse, UniProt O35464 19-571, looked up)
chain: GFPEDSEPISISHGNYTKQYPVFVGHKPGRNTTQRHRLDIQMIMIMNRTLYVAARDHIYTVDIDTSHTEEIYCSKKLTWKSRQADVDTCRMKGKHKDECHNFIKVLLKKNDDTLFVCGTNAFNPSCRNYRVDTLETFGDEFSGMARCPYDAKHANIALFADGKLYSATVTDFLAIDAVIYRSLGDSPTLRTVKHDSKWLKEPYFVQAVDYGDYIYFFFREIAVEYNTMGKVVFPRVAQVCKNDMGGSQRVLEKQWTSFLKARLNCSVPGDSHFYFNILQAVTDVIRINGRDVVLATFSTPYNSEPGSAVCAYDMLDIANVFTGRFKEQKSPDSTWTPVPDERVPKPRPGCCAGSSSLEKYATSNEFPDDTLNFIKTHPLMDEAVPSIINRPWFLRTMVRYRLTKIAVDNAAGPYQNHTVVFLGSEKGIILKFLARIGSSGFLNGSLFLEEMNVYNPEKCSYDGVEDKRIMGMQLDRASGSLYVAFSTCVIKVPLGRCERHGKCKKTCIASRDPYCGWVRESGSCAHLSPLSRLTFEQDIERGNTDGLGDCHNS
modifications: biotin on the engineered C-terminal tag (enzymatic)
[3]
  binding result: binds

B5: mouse Sema6A_(ecto), C-terminal His-tag (domain or fragment)
chain: GFPEDSEPISISHGNYTKQYPVFVGHKPGRNTTQRHRLDIQMIMIMNRTLYVAARDHIYTVDIDTSHTEEIYCSKKLTWKSRQADVDTCRMKGKHKDECHNFIKVLLKKNDDTLFVCGTNAFNPSCRNYRVDTLETFGDEFSGMARCPYDAKHANIALFADGKLYSATVTDFLAIDAVIYRSLGDSPTLRTVKHDSKWLKEPYFVQAVDYGDYIYFFFREIAVEYNTMGKVVFPRVAQVCKNDMGGSQRVLEKQWTSFLKARLNCSVPGDSHFYFNILQAVTDVIRINGRDVVLATFSTPYNSIPGSAVCAYDMLDIANVFTGRFKEQKSPDSTWTPVPDERVPKPRPGCCAGSSSLEKYATSNEFPDDTLNFIKTHPLMDEAVPSIINRPWFLRTMVRYRLTKIAVDNAAGPYQNHTVVFLGSEKGIILKFLARIGSSGFLNGSLFLEEMNVYNPEKCSYDGVEDKRIMGMQLDRASGSLYVAFSTCVIKVPLGRCERHGKCKKTCIASRDPYCGWVRESGSCAHLSPLSRLTFEQDIERGNTDGLGDCHNS
[4]
  fold weaker binding than wild type: > 9 fold
